The target in test [1] is T1, full-length human CD137 with C-terminal 3xMyc tag displayed on yeast cells (human, UniProt Q07011 24-255).
T1 construct: whole, on cells; not used; also called hCD137; not shown: C-terminal 3xMyc tag
The test can be described thus: FACS titration on yeast displaying full-length hCD137-3xMyc, no protease; data batch 4.

For test [2], the target named is T1, full-length human CD137 with C-terminal …. The test can be described thus: KD divided by KD of parental antibody (TY21242 or TY23310); FACS on yeast hCD137; data batch 4.
In test [3] the target is T2, hCD137 (antigen of the ELISA and FACS assays of Example 2) (human, UniProt Q07011 24-186, limits assumed).
T2 construct: also called human CD137
The experiment in a line: ELISA on hCD137, absorbance at 450 nm; masked antibody without MMP9 treatment. On the technique in general: In an ELISA, binding on a coated surface is turned into a signal by an enzyme label.

The target of test [4] is T2, hCD137 (antigen of the ELISA and FACS …). The experiment in a line: FACS-based assay on hCD137.
The target is the same in test [5]. The experiment in a line: FACS KD relative to parental antibody TY24122.
The target is the same in test [6]. The test can be described thus: ELISA on hCD137.
Test [7] shares this target. The experiment in a line: ELISA EC50 relative to parental antibody TY24122.
Test [8] addresses T3, His-tagged recombinant human FcγRIIa (human, UniProt P12318 36-218, limits assumed).
T3 construct: His-tagged; also called hFcγRIIa
T3 sequence (looked up): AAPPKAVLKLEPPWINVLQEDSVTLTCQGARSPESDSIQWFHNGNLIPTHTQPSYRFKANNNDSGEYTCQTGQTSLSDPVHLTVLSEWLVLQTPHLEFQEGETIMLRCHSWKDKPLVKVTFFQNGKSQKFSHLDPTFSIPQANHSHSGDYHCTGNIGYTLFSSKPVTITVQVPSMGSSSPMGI
The experiment in a line: BLI (Fortebio), His-tagged FcγR captured on anti-Penta-His sensor, antibody in solution, steady state analysis. (In general: BLI is a label-free optical method that tracks binding on a fibre tip over time.)

Test [9] concerns the target T4, His-tagged recombinant human FcγRIIb (human, UniProt P31994 46-217, limits assumed).
T4 construct: His-tagged; also called hFcγRIIb
T4 sequence (looked up): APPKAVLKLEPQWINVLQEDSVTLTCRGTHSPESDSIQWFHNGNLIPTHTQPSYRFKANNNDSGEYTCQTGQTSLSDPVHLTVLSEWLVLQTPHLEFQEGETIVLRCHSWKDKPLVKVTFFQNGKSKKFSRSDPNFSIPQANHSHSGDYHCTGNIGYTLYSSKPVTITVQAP
The test is described as above.

B1: TY25366 (antibody, human IgG4 S228P, kappa)
heavy: EVQLVESGGGLVQPGGSLRLSCAASGFSLSTGGVGVGWIRQAPGKGLEWLALIDWADDKYYSPSLKSRLTISRDNSKNTLYLQLNSLRAEDTAVYYCARGGSDTVIGDWFAYWGQGTLVTVSSASTKGPSVFPLAPCSRSTSESTAALGCLVKDYFPEPVTVSWNSGALTSGVHTFPAVLQSSGLYSLSSVVTVPSSSLGTKTYTCNVDHKPSNTKVDKRVESKYGPPCPPCPAPEFLGGPSVFLFPPKPKDTLMISRTPEVTCVVVDVEQEDPEVQFNWYVDGVEVHNAKTKPREEQFNSTYRVVSVLTVLHQDWLNGKEYKCKVSNKGFPSSIEKTISKAKGQPREPQVYTLPPSQEEMTKNQVSLTCLVKGFYPSDIAVEWESNGQPENNYKTTPPVLDSDGSFFLYSRLTVDKSRWQEGNVFSCSVMHEALHNHYTQKSLSLSLGK
light: not shown
notes: also called untreated TY25366
Broadly, the Kd is a measure of binding affinity in units of concentration. Usually EC50 (read off the curve) stands for the midpoint of the concentration-response curve. A higher EC50 (read off the curve) goes with lower potency in that assay. In test [1], B1 gave a Kd of 64.6 nM. Besides, the Masking efficiency in test [2] came to 324 fold. Also, the “EC50 (read off the curve)” value in test [3] was approximately 10 nM.

B2: TY24122 (antibody, human IgG4 S228P, kappa)
heavy: B1 heavy
light: not shown
For orientation: EC50 means the concentration giving half of the maximal effect. Read a low EC50 as an effect from little substance. Regarding B2, the values for the Kd in [4], in test [8] and in test [9] were 0.141 nM, 5.85 nM and 5.06 nM, respectively. For the same molecule, the Masking efficiency in test [5] and in test [7] was 1 fold in each case. The same molecule yielded an EC50 in test [6] of 0.31 nM.

The values above are taken from US20250188179A1 (ADAGENE PTE, published 2025).
